Molecular target: typhoid toxin PltB homopentamer (S. Typhi PltB, wild type) (Salmonella enterica serovar Typhi) (UniProt Q8Z6A3)
Test: crystal structure

Substance: typhoid toxin PltB homopentamer (S. Typhi PltB, wild type) (from UniProt Q8Z6A3 1-137) (natural protein)
- stoichiometry N: 5
